Assay results from the nanobody polyreactivity screen of Harvey et al. (2022).

Assay: yeast display, Sf9 membrane polyspecificity reagent, FACS + sequencing; frameworks hold sequencing errors
Summary of the method: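 Polyreactivity labels are assigned by the sorting gate from which each nanobody was recovered. The gates were low and high (top ~1%), set on anti-HA fluorescence for expression and streptavidin fluorescence for reagent binding. Before sorting, galactose-induced (36–48 hours) yeast display cells were stained for 1 hour at 4 °C with 10% biotinylated, detergent-solubilized Sf9 membrane reagent.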

Row | Sequence | polyreactivity (PSR sort gate)
1 | QVQLVESGGGLFQAGGSLRLSCAASGSISIKNAMGWYRQAPGKERELVATITYNGGSTYYADSVKGRFTISRDNAKNTVYLQMNSLKPEDTAVYYCARDAFEPYDVGEYYYWGQGTQVTVSS | low polyreactivity
2 | QVQLVESGGGLVQAGGSLRLSCAASGRTFANYAMGWYRQAPGKDRELVAAIYSGGNTYYEDSVKGRFTISRDNAKNTVFLQMNRLKPEDTAVYYCNSPWYYRYQRNEYGYWGQGTQVTVSS | high polyreactivity
3 | QVQLVESGGGLVQAGGSLRLSCAASGNTFEYYTMGWYRKAPGKERELVASIDWSTTSTYYADSVKGRFTISRDNAKNTVYLQMNSLKPEDTAVYYCNTVYDYYHLGLYSGFRYHYWGQGTQGTVSS | low polyreactivity
4 | QVQLVESGGGLVQAGGSLRLSCASSGSTIYPNAMGWYRQAPGKERELVARISRTGGSTYADSVKGRFTISRDNAKNTVYLQMNSLKPEDTAVYYCARSYASFSWLRTKEPYEYWGQGTQVTVSS | low polyreactivity
5 | QVQLVESGGGLVQAGGSLRLSCAASGLIFYDNMGWYRQAPGKERELVAAISSSGGSTSYADSVKGRFTISRDNAKNTVYLQMNSLKPADTAVYYCAADSYPAYLGFVGFDYWGQGTQVTVSS | low polyreactivity
6 | QVQLVESGGGLVQAGGSLRLSCAASGNIFTTYAMGWYRQAPGKERELVAAISRTGGRTSYADSVKGRFTISRDNAKNTVYLEMNSLKPVDTAVYYCADTLWRQSNLEYWGQGTQVTVSS | high polyreactivity
7 | QVQLVESGGGLVQAGGSLRLSCAASGITFRYYAMGWSRQAPGKERELVAAITRGGRTNYADSVKGRFTISRDNAKNTVYLQMNSLKPEDTAVYYCATGRDSNFGNSYYYWGQGTQVTVSS | high polyreactivity
8 | QVQLVESGGGLVQAGGSLRLSCAASGRTFYYYAMGWYRQAPGKERELVAAISSRGGRTYYADSVKGRFTISRDNAKNTVYLQMNSLKPEDTAVYYCAKVVAYYDRDSWGQGTQVTVSS | high polyreactivity
9 | QVQLVESGGGLVQAGGTLRLSCAASGSIFRYYAMGWYRQAPGKERELVASSSRRGGSTYYADSVKGRFTISRDIANITVYGQMNSLKPEDTAVYYCAAYSYVYGERYYYWGQGSQVTVSS | high polyreactivity
10 | QVQLVESGGGLDQAGGSLRLSCAASGYTFGRNAMGWYRQAPGKERELVATISQRGGSTYYADSVKGRFTISRDNANNTVYLQMNSLKPEDTAVYYCAAGPIYRYRRYYYWGQGTQVTVSS | high polyreactivity
11 | QVQLVESGGGLVQAGGSLRLSCAASGSIFPVYAMGWYRQAPGKERELVAAITWRSGSTYYADSVKGRFTISRDNAKNTVYLQMNSLKPDDTAVYYCAKVPTYRFDHWGQGTQVTVSS | high polyreactivity
12 | QDQLVESRVGLVQAGGSLRLSCAASGMIIGIYDMGWYRQAPGKERELVAAIRRSGGSTYYADSVKGRFTISRDNAKNTVYLQMYSLKPEDTAAYYCATDAWYYSQTNHDYWGQGTHVTVSS | low polyreactivity
13 | QVQLVESGGGLVQSGGSLRLSCAASGFTFSWYAMGSYRQAPGKERELVAAISWDGDSTYYADSVKGRCTISRDNAKNTVFLQMNSLKPEETAVYYCAADFSYYWDGYDYWGQGSQVTVSS | high polyreactivity
14 | QVQLVESGGGLVQAGGSLRLSCAASGRTFRLYAMGWYRQAPGKERQLVAAIDGNGGSTYYADSVKGRFTISRDNAKNTVYLQMNSLKPEDTAVYYCAVSVSVYLDYRRDHQRGYDYWGQGTQVTVSS | low polyreactivity
15 | QVQLVESGGGIVQAGGSLRLSCAASGSTFSYNAMGWYRQAPGKERELVAAISRGGITNYADSVKGRFTISRDNAKNTVYLQMNSLKPEDTAVYYCNAGYLGGPSYEYWGQGTQVTVSS | low polyreactivity
16 | QVQLVESGGGLVQAGGSLRLSCAASGFTFIRYAMGWYSQAAGKDRELVARITSSGSSTYADSVKGRFTISRDKAKNTVYLQMNSLKPEDTAVYYCAAKVHTRRRFDYWGQGTQVTVSS | high polyreactivity
17 | QVQLVESGGGLVQAGGSLRLSCAASGNTFNLYAMGWYRQAPGKERELVASMTSGGGTNYADSVKGRFTISRDNAKNTVYLQMNSLKPEDTAFFYCAATDWFSEYYWGQGTQVTVSS | low polyreactivity
